Legend:
[1] = biological target: T1, 3T3 cells that over-express human cMet (Homo sapiens, UniProt P08581); assay: Whole cell ELISA of peptide-displaying phage; type: cell-based; conditions: phage isolate; 3T3 cells expressing human cMet vs. non-expressing 3T3 cells
T1 construct: expressed in transfected cells; host or cells: 3T3 cells
Method in brief: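 3T3 cells over-expressing human cMet seeded 10^5/well, pelleted and fixed with 0.1% glutaraldehyde 12 min at 37 °C. Blocked peptide-displaying phage bound 1 h at room temperature; after PBST wash, bound phage detected with HRP-conjugated anti-M13 antibody.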

[2] = biological target: cMet-Fc fusion protein (Homo sapiens, UniProt P08581); assay: Protein phage ELISA: peptide-displaying phage binding to soluble cMet-Fc versus TRAIL-Fc; conditions: phage isolate; cMet-Fc vs. TRAIL-Fc
Method in brief: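 Plates coated with 0.5 μg/mL cMet-Fc or, as background, TRAIL-Fc, then blocked with 3% BSA in PBST. Peptide-displaying phage bound 2 h at room temperature. Detection with HRP-anti-M13 antibody.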

Chain of cMet-Fc fusion protein (P08581 25-307 limits assumed): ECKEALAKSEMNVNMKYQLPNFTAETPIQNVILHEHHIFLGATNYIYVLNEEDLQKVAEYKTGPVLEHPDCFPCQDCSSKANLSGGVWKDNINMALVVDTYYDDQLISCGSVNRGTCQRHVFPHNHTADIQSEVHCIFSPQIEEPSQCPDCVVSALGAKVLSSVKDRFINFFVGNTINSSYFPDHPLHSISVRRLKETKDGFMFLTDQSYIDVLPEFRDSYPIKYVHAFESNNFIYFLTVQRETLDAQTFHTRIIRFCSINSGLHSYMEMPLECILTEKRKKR
Chain of cMet-Fc fusion protein (P08581 with tags, fused parts or gaps limits assumed): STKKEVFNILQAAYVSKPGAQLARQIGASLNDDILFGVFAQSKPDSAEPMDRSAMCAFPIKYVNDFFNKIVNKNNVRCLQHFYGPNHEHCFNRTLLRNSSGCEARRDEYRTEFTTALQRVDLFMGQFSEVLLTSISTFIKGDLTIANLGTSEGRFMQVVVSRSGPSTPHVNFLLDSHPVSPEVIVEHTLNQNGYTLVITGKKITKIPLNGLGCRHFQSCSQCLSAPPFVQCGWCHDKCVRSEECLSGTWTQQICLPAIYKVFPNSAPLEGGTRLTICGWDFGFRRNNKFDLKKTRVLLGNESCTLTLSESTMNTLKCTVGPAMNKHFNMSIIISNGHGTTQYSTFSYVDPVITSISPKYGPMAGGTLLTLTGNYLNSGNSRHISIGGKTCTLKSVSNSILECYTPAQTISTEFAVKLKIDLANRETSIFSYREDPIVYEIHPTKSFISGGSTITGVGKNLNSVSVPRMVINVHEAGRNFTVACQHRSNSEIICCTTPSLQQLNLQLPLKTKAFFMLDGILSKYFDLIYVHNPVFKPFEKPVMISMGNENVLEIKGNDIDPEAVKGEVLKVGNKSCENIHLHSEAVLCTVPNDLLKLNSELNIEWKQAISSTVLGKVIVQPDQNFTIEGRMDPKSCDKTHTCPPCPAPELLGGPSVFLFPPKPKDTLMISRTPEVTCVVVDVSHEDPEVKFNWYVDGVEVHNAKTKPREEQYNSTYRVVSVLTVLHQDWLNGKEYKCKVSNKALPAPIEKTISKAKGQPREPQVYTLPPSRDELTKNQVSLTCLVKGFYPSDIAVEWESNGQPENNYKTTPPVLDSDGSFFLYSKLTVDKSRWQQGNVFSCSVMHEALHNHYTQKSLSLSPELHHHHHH
T1 sequence (P08581 25-1390): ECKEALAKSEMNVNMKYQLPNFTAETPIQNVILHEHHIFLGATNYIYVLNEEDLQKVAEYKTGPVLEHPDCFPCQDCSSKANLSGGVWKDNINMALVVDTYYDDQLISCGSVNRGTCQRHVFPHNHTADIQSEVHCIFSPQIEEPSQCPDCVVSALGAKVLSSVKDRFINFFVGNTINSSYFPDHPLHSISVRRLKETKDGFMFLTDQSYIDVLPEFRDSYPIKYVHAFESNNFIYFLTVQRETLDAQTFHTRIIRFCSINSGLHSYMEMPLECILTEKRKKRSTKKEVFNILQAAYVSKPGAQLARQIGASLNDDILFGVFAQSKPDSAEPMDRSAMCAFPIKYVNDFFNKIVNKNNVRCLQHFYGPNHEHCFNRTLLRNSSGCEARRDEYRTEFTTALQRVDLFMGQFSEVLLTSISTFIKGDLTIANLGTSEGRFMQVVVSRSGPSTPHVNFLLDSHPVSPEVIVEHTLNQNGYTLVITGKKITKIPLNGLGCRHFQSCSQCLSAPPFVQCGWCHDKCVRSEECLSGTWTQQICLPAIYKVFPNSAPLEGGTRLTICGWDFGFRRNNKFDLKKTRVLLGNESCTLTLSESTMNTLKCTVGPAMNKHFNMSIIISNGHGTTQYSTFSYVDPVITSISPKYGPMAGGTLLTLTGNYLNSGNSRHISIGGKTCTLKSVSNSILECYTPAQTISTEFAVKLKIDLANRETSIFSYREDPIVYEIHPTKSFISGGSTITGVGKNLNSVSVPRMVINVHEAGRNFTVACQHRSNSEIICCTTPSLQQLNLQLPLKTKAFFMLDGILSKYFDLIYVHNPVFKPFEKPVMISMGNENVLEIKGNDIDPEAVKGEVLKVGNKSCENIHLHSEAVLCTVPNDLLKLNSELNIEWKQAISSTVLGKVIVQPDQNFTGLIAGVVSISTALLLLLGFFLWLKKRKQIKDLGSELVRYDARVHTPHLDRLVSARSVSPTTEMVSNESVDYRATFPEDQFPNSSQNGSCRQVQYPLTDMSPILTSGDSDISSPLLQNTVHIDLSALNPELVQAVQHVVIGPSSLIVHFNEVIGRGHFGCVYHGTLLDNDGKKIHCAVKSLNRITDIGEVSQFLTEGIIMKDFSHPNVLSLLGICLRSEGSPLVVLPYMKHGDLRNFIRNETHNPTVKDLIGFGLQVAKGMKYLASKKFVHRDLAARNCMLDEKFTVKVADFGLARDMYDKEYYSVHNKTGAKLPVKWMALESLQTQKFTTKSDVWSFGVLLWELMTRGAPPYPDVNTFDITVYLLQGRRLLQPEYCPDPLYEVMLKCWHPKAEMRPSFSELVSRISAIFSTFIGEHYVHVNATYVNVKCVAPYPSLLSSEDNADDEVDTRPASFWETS

Row | Compound | WC ELISA [1] [fold over background] | Protein ELISA [2] [fold over background]
1 | CC(=O)N[C@@H](C)C(=O)NCC(=O)N[C@@H](CCC(=O)O)C(=O)N[C@@H](Cc1c[nH]c2ccccc12)C(=O)N[C@@H](Cc1c[nH]c2ccccc12)C(=O)N[C@H]1CSSC[C@@H](C(=O)N[C@@H](Cc2ccc(O)cc2)C(=O)N[C@@H](Cc2c[nH]c3ccccc23)C(=O)N[C@H](C(=O)NCC(=O)N[C@H](C(=O)NCC(=O)NCC(=O)NCC(=O)N[C@@H](CCCCNC(=O)c2ccc3c(c2)C(=O)OC32c3ccc(O)cc3Oc3cc(O)ccc32)C(N)=O)[C@@H](C)O)[C@@H](C)O)NC(=O)[C@H](CC(C)C)NC(=O)[C@H](Cc2ccccc2)NC(=O)[C@H](CCC(=O)O)NC(=O)[C@@H]2CCCN2C(=O)[C@@H]2CCCN2C(=O)CNC(=O)[C@H](Cc2c[nH]cn2)NC1=O [SEQ ID NO: 072] | 1.47 | 12.6
2 | AGTVYCSWESSECWWVGT (Synthetically generated cMet-binding peptide sequence) [SEQ ID NO: 019] | 1.37 | 3.9
3 | CC[C@H](C)[C@H](NC(=O)[C@H](CO)NC(=O)CNC(=O)[C@H](C)NC(C)=O)C(=O)N[C@@H](CCC(N)=O)C(=O)N[C@H]1CSSC[C@@H](C(=O)N[C@H](C(=O)N2CCC[C@H]2C(=O)N[C@@H](Cc2ccc(O)cc2)C(=O)NCC(=O)N[C@H](C(=O)NCC(=O)NCC(=O)NCC(=O)N[C@@H](CCCCNC(=O)c2ccc3c(c2)C(=O)OC32c3ccc(O)cc3Oc3cc(O)ccc32)C(N)=O)[C@@H](C)O)[C@@H](C)O)NC(=O)[C@H](CCC(=O)O)NC(=O)[C@H](Cc2ccccc2)NC(=O)[C@H](CO)NC(=O)[C@@H]2CCCN2C(=O)[C@@H]2CCCN2C(=O)CNC(=O)[C@H](C(C)C)NC1=O [SEQ ID NO: 074] | 1.37 | 6.7
4 | AGQMWCAEKNSKCYQWGT (Synthetically generated cMet-binding peptide sequence) [SEQ ID NO: 030] | 1.27 | 3.2
5 | AGLYLCDLSIMYCFFQGT (Synthetically generated cMet-binding peptide sequence) [SEQ ID NO: 015] | 1.33 | 4.3
6 | ADAWMCEYFQWNCGDKGT (Synthetically generated cMet-binding peptide sequence) [SEQ ID NO: 046] | 1.33 | 4.5

Further lines, results first:

Row | WC ELISA [1] [fold over background] | Protein ELISA [2] [fold over background] | Compound
7 | 1.37 | 3.1 | GSFTACNKTSTTRQPCNPYAP (Synthetically generated cMet-binding peptide sequence) [SEQ ID NO: 384]
8 | 1.33 | 8.0 | AQMYQTPDGVIGKFVDWMFN (Synthetically generated cMet-binding peptide sequence) [SEQ ID NO: 455]
9 | 1.27 | 3.7 | AQDPGFSKHSMGHGYPSKMNWG (Synthetically generated cMet-binding peptide sequence) [SEQ ID NO: 471]
10 | 1.23 | 3.4 | AQAEWVITSEEFYWKMADFGPP (Synthetically generated cMet-binding peptide sequence) [SEQ ID NO: 478]
11 | 1.23 | 13.0 | AGTMYCLGPPTFICQQYGT (Synthetically generated cMet-binding peptide sequence) [SEQ ID NO: 084]
12 | 1.17 | 3.5 | AQHGYLSPLKQYQMSHVEFWTY (Synthetically generated cMet-binding peptide sequence) [SEQ ID NO: 476]
